Results taken from the DeepSol protein solubility set.

Assay: soluble on expression in E. coli; label from the status in PepcDB or PDB records

Soluble on expression in E. coli, soluble:
MSRIRSNNDNIIILTDEQRKTVGRIAGRSQNRNTSKKIADGPYFLPRYRIRDNAERSVGARFKSLPQKEQDEVVNEAFSNLREYLKKREPFYAKLRKANSKYSSKPKEREKSVDSNDEADRRNKGNKKTQKNASKNCQIEKSSNNSGILKKSGSGISVASKPKKSVAFAPGVYEDLSTDDDLEFLNSVIVNSDRPTSQCDNPARRMCGRPPTKHRDTEQSQEITGSKKQKIFPTPHEKPAWWSFRIPKKRAQ
MSRRAGTPTAKKVTQLVNVEEHVEGFRQVREAHRRELIDDYVELISDLIREVGEARQVDMAARLGVSQPTVAKMLKRLATMGLIEMIPWRGVFLTAEGEKLAQESRERHQIVENFLLVLGVSPEIARRDAEGMEHHVSEETLDAFRLFTQKHGAK
MSRYNWNVPILEVLKEAVMVKKLNKIAVVGTPCVINAVYQMMATNNDLVEPFKKAIRLKISLFCFETFDYDKMLKKLKEVEVNPWDIKKMEIDKGKLIVSTIHGNVFNFKIDEMDEYVRKGCKVCRDFTGISSDISVGNVGTPEGYSTVLVRNKWGKGFFDRAVINGYVSVEGEASIDPVISLSKKKMERKDIEFLEHHHHHH
MSSMEGKKVPQVTFRTRQGDKWVDVTTSELFDNKTVIVFSLPGAFTPTCSSSHLPRYNELAPVFKKYGVDDILVVSVNDTFVMNAWKEDEKSENISFIPDGNGEFTEGMGMLVGKEDLGFGKRSWRYSMLVKNGVVEKMFIEPNEPGDPFKVSDADTMLKYLAPQHQVQESISIFTKPGCPFCAKAKQLLHDKGLSFEEIILGHDATIVSVRAVSGRTTVPQVFIGGKHIGGSDDLEKYFA
MSSSPSLPSSASVPAAFDRAPVSGLPDNAIEIDALRKVYGGGKVALESLSLAIPRGSFFGLLGPNGAGKSTLINIMAGLVRKTSGRVRIWGNDIDTDERAARCAIGIVPQELSFDPFFTPREMLDVQAGLYGVPKAERRTLEILRAVGLEDKADAYSRTLSGGMRRRLLVAKAMVHSPPILVLDEPTAGVDIELRQQLWAYVRDLNARGTTVLLTTHYLEEAEELCDRIAIIDHGKVVVSEPTTTLLGRLDNKSLTLRLAQPLDAPPPALAALGAELRDPYHLVITYHPSSLPMARILDAARAGGLTIADLTTREADLEDVFLRLTSSHHRAQEIGLEHHHHHH
MSSSPVKRQRMESALDQLKQFTTVVADTGDFHAIDEYKPQDATTNPSLILAAAQMPAYQELVEEAIAYGRKLGGSQEDQIKNAIDKLFVLFGAEILKKIPGRVSTEVDARLSFDKDAMVARARRLIELYKEAGISKDRILIKLSSTWEGIQAGKELEEQHGIHCNMTLLFSFAQAVACAEAGVTLISPFVGRILDWHVANTDKKSYEPLEDPGVKSVTKIYNYYKKFSYKTIVMGASFRNTGEIKALAGCDFLTISPKLLGELLQDNAKLVPVLSAKAAQASDLEKIHLDEKSFRWLHNEDQMAVEKLSDGIRKFAADAVKLERMLTERMFNAENGK

Soluble on expression in E. coli, not soluble:
MSRDTERYPVKHANSLWQIYKTVPFWKVVKNFVVIQLARYTPFVSVKNWLYRTFLKMDVGEKTAFALMVMPDIMFPERISVGRNSIIGYNTTILAHEYLIEEYRLGDVIIGDEVMVGANTTILPGVTIGDRAIIAAGTVVHKNVPPGAFVGGNPMQVIKQLEHHHHHH
MSRFQTLTPASLSREAFIEAFADIYEHSPWVAEKAYDLGIDDSLNDIEGLHQRMADILLSASREAQLALINAHPDLAGKAAIRGELTASSTSEQAGAGIHECSAEEFARFTELNDAYKARFGFPFIKAVKGSNRHQILAAFEERIQHSADEEFATALAEINKIALFRLQQL
MSRGGKGGDGDTRGGGGENGNQNNKGGNDEGGNEIEVPSMEELDGLADKIADEFVSQGMKIYQTLDPETRPYPDEYREGLRSQVEELPEKFKEFYTPGPGEFTAKLDLIDELTRKLDTQAGDFNTGEISGHVHDAMDNMGEWEGALSISFRKGYLDPLYEGIIPNHGRVLALLHDNFQAMRDIYAEGRKSLKKIGEDGLSAMEQADDVDGAAVVTALTVLAAAFGLGFAGLAAVPGIATAAGVAGAAVAGGLAVASDQAPEPEEIPLAGSSAEDVLVNIYDALSKLEDDILTKEAELIDTILRGCDETLELVGDTTENSMLVPKMPDLVGTALDDYHQISEGLNQFD
MSRNLHHTEEIYQSSYLNSSLIEFMPNTILPGKETVFMSSKMEQIIEEIEDYIDGCKPSPISRNKILVNREQLEELLSELRTKTPEEVKRYQKIISNKEAILADAQAKADQIIAQAQIQTNELVSEHQIMQQAYAQANEVVQIATKQAQEILDSATNEANNLRMSAMAYTDSQLKSIEDILTGSIETSKARYDSLISSLQQFEDVVAANRAELFPPEENGDEAAGAESSDNEATSDTSDDDIEITNISDSDEDAK
MSSASAHHKKDLLDQVNNPVFLQDLRQQMIKFAVLQLASLPHAEDVVQDALASAFQHLDSFTGRAAFKTWVFAILKNKIIDLIRQKSRLVSMSELFKDEESELSIDALFDASGHWHKYEAPQAWLSPEEMMEQQDFWIIFDACLNHLPAKYAQVFMLREVIELNSSEICEKLELTVSHFNVLMYRSRTRLRECLENKWLLQEDCSC
MSSDFPTDPYSTAQQKWLYQDHLVLPTLEKLLKYNLKDKKVLDIGCGNGLNSTTFLQWGARKVVGFDNSQEMIENCKNLHKSSEQSSFHHLNVTDFQLDEKFHVATAVFVLQYVHDKEELRKAIRLIWERKLRNGWFRLWMEDL
MSSDTGSEYLDEEIRGDELGPSIDDNALAAAASAARLPFDRPTDHELAFFPELWEHKTAVEVFLLLRNSTLATWQYNPLKECTALDVRNNVFPPFNSDLDLIQNIVHYLSRHGLINFGRYVRSTKISRFLVRDRRSVIVIGAGAAGISAATQLESFGFDVIVLEARNCIGGRIHSFKSKSGEIMETGGDTLRKIEDSPMATLLHQVNFEEHGVFDFTSVFVEGRPLNEEKIHLFLDHYKSAHGALNYQAHQCEHRDDQGSFISRQQAYENLLSMCERGTLIKYYNFCKSLETVARAREHHFNQMKQLRMTALMAENQLKKMEEEGNLEQDPVLRRSLKRDIATSLEKFEEVADAFETADNHWQRLNEHPQAKQYMHPGSEFATFNFMLGFEEYLVGAQLEKVQFSCDSMQNKENGVAARLTEGIAELLTQLSEKRKLDIRLKHRVLDIDYSGFEHVLLKVQRENGDIEEMKAAFVVSTLPIGVLKKTIIADERAPTFTPSLPDKKVEAIRNIGCGSVNKCILEFDRVFWTANGGRNQFVTVSPNIKTRGSMNIWSSVPGSKVLCTYIVGEEAMLELPDDVIIQNAMINLQKAFGNNCPRAPISAHITRWHDDELAFGSGAFMSLRTETTSFDDVMEPLKTSDGMSRVYFAGEHTCSSYTSTIQGAWMSGARAAADISNDHIGIGFVDISGTRGQRGDEEEELLIEVDIDGKIPEKDENEAVADIPNAPNAPNAQKPEEIPKIAEEIELVAEAEKAEKAEVQLEPLVPTVE
MSSETRRKILEAARKAFSKYGYDGVSMEEIAREAGVKKALIYYYFPSKDKLFEEVWREALEELESHLFAVTEETNSYFAKIKKFLKSYVDFVLNKTVLNEIIEKEKSTVRFEEEKWSKLRERYESFIKRVEELIEEGKKQNYVYKDLDSRAAAELIVNSFGDVPKDKRLLQNIQEMILRGLLNVKTEEGR
MSSEWDNKIIPVIGVPLEARKLPSARIPKKPKETDGNSTETVVNSTEKPEERKEKPPKPPKQKQKQKQNLNNKFLKNLITDTGKPASMNGLFVAEEEAKLTLLEKKAMKIHIEENTLSDPQFPTYTTKHQGRIKFKCRLLWLLNKETFMKRANKPHLANIVVKQAHMEAVPPKQNVNQKKQMKNQEKNKNAKPLMDIKFDEKARSFKQRTGEDYNGGFDISSNYQGSEGSGGYQHIGNTWPNTESQWNYDPSTNGYSTFLASTPDTSTTYQPYQPSEYANFSRQLESSSSSVPVYGGATDPTQTSTSSVISFGVAVHEPISESSASAYDDPTRNHWNPQSATSDYSTVPTSGTSNVFPSYQTSEYSSFPNQTPSSSSSYQQSSQYTPMVPDLINQAINGYTTPQYNQPNQQVNQDFNTNQFSASLASLHSQPLEASEDELLRQKRLMEIEQELHMINAKKMHMQMEAEIRHREMELAKRQQLMELRERELRDRECFENGRTHAGHTGQHNYDNREYSSHHESKNPSVGGNYSSTSRSISINEDPAASHYYGQRVERKKRLGGELARRQGRVYEEVSSPGPLKRSADQSRAGSIQPAEGPSRKQRRRNNKNVQVTVNMEDISDDEEV
MSSHKEEPLEADVDQLTQYRERCADHVTEFKSILDECNDRVNSRSNTEETCHQEMADYVHHLDHCAMPKAFASLK
MSSILIIGAGPTGLGAAHRLRGLGLENWHLFESTEQIGGLSASFVDDHGFTWDVGGHVLFSHYDYFDRVVEEALDGAWYEHQRECWVRIRETWVPYPFQNNIRHLPPDALEECLAGLKGLAGSPSLAANFREWMDRVFGAGIVKHFMEPYNRKVWGVPLHEMSREWIGERVSVIDLARIEKNIAEKTDDVNWGPNNTFKFPHKGGTGAIFSSIATRFQDRISFSHELTEVNLAARELGFSNGRRERYDSLITTIPLDIFIGLCRDVPESVREAASRLVHNSGLIVGIGVEGERRDSKCWMYFPEDNCPFYRVTNFHNYSPWNVPNGDTSRFFSLMCETTSSPHKPVNRAEIVETTIQGLINAGMLTESERERIISRYVIDIPYSYPVPTVGRDEALAVINPFLESQGVYSRGRFGAWKYEVGNMDHSFMQGVEVADRILNGADEPTVTGKGGDRLEHHHHHH
MSSKKNFEVGENVACIYKGKPYDAKITDIKTNSDGKELYCVHFKGWNNRYDEKIPVGEEKDRIFKGTASEYAEKHNAELPTTALKPKKKSLAAEAPRDDRDDTPGTSKGKKAKSVTIAPVMTADDMKVELPKPLRKILIDDYDLVCRYFINIVPHEYSVDQIIEDYIKTIPVSNEQMRTVDDLLIEYEEADIKITNLALICTARGLVDYFNVTLGYQLLYKFERPQYNDLVKKRAMEKGIDITNPTALQDSGFRPSQEYGIVHFLRMLAKLPDYLKLTQWNDHVINRIMIGVHDLIVFLNKNHGKYYRGSSDYQGASNDYYRRSLAADDGVGANQ
MSSPSGSSRTFPQYQSGSGWNAMLPKRTPRTAAPARRHFKSLVIGAGYTGLAAARRLAELQPQDQVLVVDATVAGEGSAGRNSGFLINLPHNTRMSGHHSPLEVARKQIAMLQSGLDWLAQLSGQGGFDCGWDLAGKYHAAATADGEQSLRGALQQYGQWGVAFSELDRDALQAQLGTRYYRFGYHSMNNVFVQPAALIRGLADSLPENVWLMEDNPVLSIDGSGPYKVRTRGGEFTADNVILANNAFARRLGFLRSRLVTIFTYAGVTPVLSPAQQALLGERDQWGVIPANRLGTTLRRISGGRFMVRSAYSYEAEQPLERMEQLLRDSFVRRYPDLAAHDFEYVWSGSTGLTGNGASFVGAIQPGLYASVGCNGAGVIKGTIYGKLLGEQVAGHRSAMLDDLASFEKPNWLPPEPLRRIGALSTIAYQARKAGLEKLEHHHHHH
MSSQIRGSKQHEDVDPVTIKKIEEAYVMLNGPDGAKCSSLLKKNLTKDVIEKLKTKSTKLGANLYDCIRSGVYCLDALVGVYAPDAEAYTLFAPLFDKIIEDYHGLGPDQKQPPVDLGEGKTKEFPPLDPKGKYIKSTRIRCGRSLNGYQFNPCLTEDNYLEMEEKVKKAFSEFSDEELKGTYYPLDGMSKDTQNQLIADHFLFKEGDRHLQYANACNFWPKGRGIFHNNKKTFLIWVNEEDHLRIISMQEGSDVGAVLERLIKGVRGIEKQVQFSRDDRLGWLTFCPTNLGSTVRASVHIALPKLSAREDFKQICDKLDLQLRGIHGEHSESEGGVYDISNRARLGLSEYEAVKKMYDGVKNLIEMEEKET
